These results are taken from publication PMC5269673.

Experiment [1] has as its target Gramicidin A. The experiment in a line: single-channel recording in planar lipid bilayers; gA added to both compartments of a painted DPhPC bilayer; conductive channel = gA dimer; 10 mmol/L HEPES, 1 mol/L KCl, pH 7.4, 23 ± 2 °C, -100 mV; without and with AEA.
Experiment [2] addresses Gramicidin A. Put plainly: single-channel recording in planar lipid bilayers; gA added to both compartments of a painted DOPC bilayer; conductive channel = gA dimer; 10 mmol/L HEPES, 1 mol/L KCl, pH 7.4, 23 ± 2 °C, -100 mV; without and with AEA (up to 3 umol/L) or 3 umol/L 2-AG.

In the experiment with Gramicidin A [1], Gramicidin A (peptide) had a fold increase of channel appearance frequency f (f/f control = k1/k1,control) with 3 umol/L AEA over no AEA of 4 fold and a fold increase of open channel lifetime tau (tau control/tau = k-1/k-1,control) with 3 umol/L AEA over no AEA of 1.4 fold. In addition, in the experiment with Gramicidin A [2], the fold increase of channel appearance frequency f (f/f control = k1/k1,control) with 3 umol/L AEA over no AEA was found to be 7.2 fold and the fold increase of open channel lifetime tau (tau control/tau = k-1/k-1,control) with 3 umol/L AEA over no AEA was 1.8 fold.
